# Results reported in patent US6429304 (University of California, dated 2002).
# B1: native S. purpuratus katanin p60 subunit (unfertilized egg extract / cytosol) (enzyme)
# chain: MSVDEICENTKMGREYALLGNYETSLVYYQGVLQQIQKLLTSVHEPQRKHQWQTIRQELSQEYEHVKNITKTLNGFKSEPAAPEPAPNHRAAPFSHHQHAAKPAAAEPARDPDVWPPPTPVDHRPSPPYQRAARKDPPRRSEPSKPANRAPGNDRGGRGPSDRRGDARSGGGGRGGARGSDKDKNRGGKSDKDKKAPSGEEGDEKKFDPAGYDKDLVENLERDIVQRNPNVHWADIAGLTEAKRLLEEAVVLPLWMPDYFKGIRRPWKGVLMVGPPGTGKTMLAKAVATECGTTFFNVSSASLTSKYHGESEKLVRLLFEMARFYAPSTIFIDEIDSICSKRGTGSEHEASRRVKSELLIQMDGVSGPSAGEESSKMVMVLAATNFPWDIDEALRRRLEKRIYIPLPEIDGREQLLRINLKEVPLADDIDLKSIAEKMDGYSGADITNVCRDASMMAMRRRIQGLRPEEIRHIPKEELNQPSTPADFLLALQKVSKSVGKEDLVKYMAWMEEFGSV
# notes: Endogenous protein of sea urchin eggs; also called 60 kDa polypeptide
# B2: baculovirus-expressed S. purpuratus katanin p60 subunit with N-terminal His(6) tag (enzyme)
# chain: HHHHHHMSVDEICENTKMGREYALLGNYETSLVYYQGVLQQIQKLLTSVHEPQRKHQWQTIRQELSQEYEHVKNITKTLNGFKSEPAAPEPAPNHRAAPFSHHQHAAKPAAAEPARDPDVWPPPTPVDHRPSPPYQRAARKDPPRRSEPSKPANRAPGNDRGGRGPSDRRGDARSGGGGRGGARGSDKDKNRGGKSDKDKKAPSGEEGDEKKFDPAGYDKDLVENLERDIVQRNPNVHWADIAGLTEAKRLLEEAVVLPLWMPDYFKGIRRPWKGVLMVGPPGTGKTMLAKAVATECGTTFFNVSSASLTSKYHGESEKLVRLLFEMARFYAPSTIFIDEIDSICSKRGTGSEHEASRRVKSELLIQMDGVSGPSAGEESSKMVMVLAATNFPWDIDEALRRRLEKRIYIPLPEIDGREQLLRINLKEVPLADDIDLKSIAEKMDGYSGADITNVCRDASMMAMRRRIQGLRPEEIRHIPKEELNQPSTPADFLLALQKVSKSVGKEDLVKYMAWMEEFGSV
# notes: Expressed from pFastBac HT in Sf9 cells; also called p60 katanin; recombinant p60
# B3: p80 delta 1-302 (S. purpuratus p80 katanin with the entire WD40 domain deleted), in vitro translated with N-terminal S-Tag (other)
# chain: TTGIAQEPQSQPSKTPSGGAEEVPSKPLTASGRKNFVRERPHTTSSKQRQPDVKSEPERQSPTQDEGVKDDDATDIKDPDSYAKIFSPKTRVDHSPERNAQPFPAPLDVPGAQEPEPFKHPPKPAAAAAVAPVSRAPAPSASDWQPAQANPAPNRVPAATKPVPAQEVAPSRKPDPISTIIPSDRNKPANLDMDAFLPPAHAQQAPRVNAPASRKQSDSERIEGLRKGHDSMCQVLSSRHRNLDVVRAIWTAGDAKTSVESVVNMKDQAILVDILNIMLLKKSLWNLDMCVVVLPRLKELLSSKYENYVHTSCACLKLILKNFTSLFNQNIKCPPSGIDITREERYNKCSKCYSYLIATRGYVEEKQHVSGKLGSSFRELHLLLDQLE
# notes: the residues kept are derived from the deletion named; also called truncated p80; delta 1-302 derivative of p80; not shown: 37 amino acid N-terminal S-Tag from pCITE-4a+ (Novagen)
# B4: p80 delta 303-690 (C-terminal truncation of S. purpuratus p80 katanin containing only the WD40 domain), in vitro translated with N-terminal S-Tag (other)
# chain: MATKRAWKLQELVAHSSNVNCLALGPMSGRVMVTGGEDKKVNLWAVGKQNCIISLSGHTSPVDSVKFNSSEELVVAGSQSGTMKIYDLEPAKIVRTLTGHRNSIRCMDFHPFGEFVASGSTDTNVKLWDVRRKGCIYTYKGHSDQVNMIKFSPDGKWLVTASEDTTIKLWDLTMGKLFQEFKNHTGGVTGIEFHPNEFLLASGSSDRTVQFWDLETFQLVSSTSPGASAVRSISFHPDGSYLFCSSQDMLHAFGWEPIRCFDTFSVGWGKVADTVIASTQLIGASFNATNVSVYVADLSRMS
# notes: the residues kept are derived from the deletion named; also called delta 303-690 derivative of p80; not shown: 37 amino acid N-terminal S-Tag from pCITE-4a+ (Novagen)
# B5: baculovirus-expressed S. purpuratus katanin p80 subunit with N-terminal His(6) tag (other)
# chain: HHHHHHMATKRAWKLQELVAHSSNVNCLALGPMSGRVMVTGGEDKKVNLWAVGKQNCIISLSGHTSPVDSVKFNSSEELVVAGSQSGTMKIYDLEPAKIVRTLTGHRNSIRCMDFHPFGEFVASGSTDTNVKLWDVRRKGCIYTYKGHSDQVNMIKFSPDGKWLVTASEDTTIKLWDLTMGKLFQEFKNHTGGVTGIEFHPNEFLLASGSSDRTVQFWDLETFQLVSSTSPGASAVRSISFHPDGSYLFCSSQDMLHAFGWEPIRCFDTFSVGWGKVADTVIASTQLIGASFNATNVSVYVADLSRMSTTGIAQEPQSQPSKTPSGGAEEVPSKPLTASGRKNFVRERPHTTSSKQRQPDVKSEPERQSPTQDEGVKDDDATDIKDPDSYAKIFSPKTRVDHSPERNAQPFPAPLDVPGAQEPEPFKHPPKPAAAAAVAPVSRAPAPSASDWQPAQANPAPNRVPAATKPVPAQEVAPSRKPDPISTIIPSDRNKPANLDMDAFLPPAHAQQAPRVNAPASRKQSDSERIEGLRKGHDSMCQVLSSRHRNLDVVRAIWTAGDAKTSVESVVNMKDQAILVDILNIMLLKKSLWNLDMCVVVLPRLKELLSSKYENYVHTSCACLKLILKNFTSLFNQNIKCPPSGIDITREERYNKCSKCYSYLIATRGYVEEKQHVSGKLGSSFRELHLLLDQLE
# notes: Expressed from pFastBac HT in Sf9 cells; also called p80 katanin; recombinant p80
# Assays:
# [1] = target: T1, native S. purpuratus katanin p80 subunit (sea urchin cytosol) (Strongylocentrotus purpuratus, UniProt O61585 1-690); test: immunoprecipitation from sea urchin cytosol
# T1 construct: Endogenous protein of sea urchin eggs
# T1 sequence: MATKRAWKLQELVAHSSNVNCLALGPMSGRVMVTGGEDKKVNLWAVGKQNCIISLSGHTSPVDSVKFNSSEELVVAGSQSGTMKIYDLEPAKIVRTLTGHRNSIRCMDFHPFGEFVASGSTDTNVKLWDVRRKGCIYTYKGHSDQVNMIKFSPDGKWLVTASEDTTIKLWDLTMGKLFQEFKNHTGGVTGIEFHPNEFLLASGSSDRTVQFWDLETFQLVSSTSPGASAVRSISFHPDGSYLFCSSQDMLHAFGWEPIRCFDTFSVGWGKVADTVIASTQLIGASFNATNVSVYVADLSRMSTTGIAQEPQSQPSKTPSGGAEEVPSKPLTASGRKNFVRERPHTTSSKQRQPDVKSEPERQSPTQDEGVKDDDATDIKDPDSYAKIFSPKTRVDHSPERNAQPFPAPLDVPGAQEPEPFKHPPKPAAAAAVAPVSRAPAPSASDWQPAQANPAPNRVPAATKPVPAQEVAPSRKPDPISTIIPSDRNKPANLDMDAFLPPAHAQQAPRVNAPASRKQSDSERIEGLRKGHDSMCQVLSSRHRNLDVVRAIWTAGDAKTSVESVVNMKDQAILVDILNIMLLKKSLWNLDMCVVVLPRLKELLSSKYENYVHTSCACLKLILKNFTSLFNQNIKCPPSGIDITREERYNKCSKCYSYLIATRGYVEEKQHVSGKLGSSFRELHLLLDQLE
# [2] = target: the molecule itself; test: rotary-shadowing electron microscopy of recombinant p60 on mica
# Experimental: Proteins were adsorbed to mica, freeze-dried, and platinum replicated according to established procedures (Heuser (1989) *J. Electron Microsc. Technique* 13):, 244–263; Heuser (1983) *J. Mol. Biol.* 169: 155–195). Sample preparation and imaging were similar to that used in the imaging of NSF (Hanson et al. (1997) *Cell* 90: 523–535), except that mica flakes were washed with a buffer consisting of 10 mM K-HEPES (pH 7.5), 2 mM MgCl_2, 1 mM nucleotide (ATP or ATP-γ-S).
# [3] = target: B5; test: co-immunoprecipitation from insect cells coinfected with p60 and p80 baculoviruses
# Experimental: Proteins bound to the resin were analyzed by SDS-PAGE followed by staining with Coomassie.
# The immunoprecipitations were incubated at 4° C. for 1–2 hr, washed five times with 1 ml of ice-cold TBST, and eluted in SDS-containing sample buffer.
# [4] = target: T2, in vitro translated S. purpuratus p60 katanin with 37 amino acid N-terminal S-Tag (Strongylocentrotus purpuratus, UniProt O61577 1-516); test: co-translation in rabbit reticulocyte lysate, co-immunoprecipitation with anti-p60 antibody
# T2 construct: Made in a rabbit reticulocyte coupled transcription-translation reaction; not shown: 37 amino acid N-terminal S-Tag from pCITE-4a+ (Novagen)
# Experimental: (§1) In vitro synthesis of proteins directly from plasmid DNAs was accomplished using the Single Tube Protein System 2, T7 (Novagen). […] For immunoprecipitations, lysates were incubated on ice with Pansorbin (Calbiochem)-antibody complexes, washed in NET buffer (50 mM Tris-Cl (pH 7.5), 150 mM NaCl, 0.1% Nonidet P40, 1 mM EDTA (pH 8.0), 0.25% gelatin and 0.02% sodium azide), then resuspended in SDS-PAGE sample buffer. In vitro translation products in both the pellets and supernatants from the immunoprecipitations were resolved by SDS-PAGE, transferred to nitrocellulose, probed with S-protein HRP conjugate (Novagen) and detected by chemiluminescence.
# [5] = target: T2, in vitro translated S. purpuratus p60 …; test: co-translation in rabbit reticulocyte lysate, immunoprecipitation with anti-p60 antibody
# Experimental: as §1
# [6] = target: B2; test: baculovirus co-expression, metal affinity purification, Coomassie staining
# Text: We therefore sought to express the two subunits together and separately and then test their enzymatic activities.
binder,measurement,setting,value
B1,binding result,[1],binds
B2,binding result,[2],binds
same,binding result,[3],binds
B3,binding result,[4],binds
B4,binding result,[5],no binding
B5,p60:p80 molar ratio in the purified co-expressed protein,[6],~0.9 mol p80 per mol p60
